Measurements reported in article PMC3725402.
Substitutions are numbered along the chain they refer to. In names and notes the source's numbering stands.

How the values were obtained:
Assay type in all cases: biochemical, Arabidopsis thaliana
[1] = substrate: NCCCCN; assay: HPLC of dansylated N-methylputrescine, fluorimetric; details: PMT activity, co-substrate SAM, 20 mM HEPES pH 8.0, 37°C, 2 mM DTT, 1 mM ascorbic acid
Excerpt: (§1) HPLC of dansylated N-methylputrescine, fluorimetric on AtSPDS1 (spermidine synthase 1)

[2] = substrate: C[S+](CC[C@H](N)C(=O)O)C[C@H]1O[C@@H](n2cnc3c(N)ncnc32)[C@H](O)[C@@H]1O; assay: as above; details: PMT activity, co-substrate putrescine, 20 mM HEPES pH 8.0, 37°C, 2 mM DTT, 1 mM ascorbic acid
Excerpt: as §1

[3] = substrate: NCCCCN; assay: HPLC of dansylated spermidine, fluorimetric; details: SPDS activity, co-substrate dcSAM, 20 mM HEPES pH 8.0, 37°C, 2 mM DTT, 1 mM ascorbic acid
Excerpt: (§2) HPLC of dansylated spermidine, fluorimetric on AtSPDS1 (spermidine synthase 1)

[4] = substrate: C[S+](CCCN)C[C@H]1O[C@@H](n2cnc3c(N)ncnc32)[C@H](O)[C@@H]1O; assay: HPLC of dansylated spermidine, fluorimetric; details: SPDS activity, co-substrate putrescine, 20 mM HEPES pH 8.0, 37°C, 2 mM DTT, 1 mM ascorbic acid
Excerpt: as §2

B1: AtSPDS1 (spermidine synthase 1) (Arabidopsis thaliana; D131I/Q107T/V134T) (protein)
chain: MDAKETSATDLKRPREEDDNGGAATMETENGDQKKEPACFSTVIPGWFSEMSPMWPGEAHSLKVEKVLFQGKSDYQDVIVFQSATYGKVLVLDGVIQLTERDECAYTEMITHLPLCSIPNPKKVLVIGGGIGGTLREVARHASIEQIDMCEIDKMVVDVSKQFFPDVAIGYEDPRVNLVIGDGVAFLKNAAEGSYDAVIVDSSDPIGPAKELFEKPFFQSVARALRPGGVVCTQAESLWLHMDIIEDIVSNCREIFKGSVNYAWTSVPTYPSGVIGFMLCSTEGPDVDFKHPLNPIDESSSKSNGPLKFYNAEIHSAAFCLPSFAKKVIESKAN
notes: pQE-30, N-terminal His tag, E. coli M15[pREP4], HisTrap purified
Km [1]: 32 ± 1.88 µM
kcat [1]: 0.081 s⁻¹
Km [2]: 12 ± 0.60 µM
kcat [2]: 0.081 s⁻¹

B2: AtSPDS1 (spermidine synthase 1) (Arabidopsis thaliana) (protein)
chain: B1 chain with T107Q, I131D, T134V
notes: as for B1
Km [3]: 220 ± 18.44 µM
kcat [3]: 0.722 s⁻¹
Km [4]: 18 ± 1.23 µM
kcat [4]: 0.722 s⁻¹

B3: AtSPDS1 (spermidine synthase 1) (Arabidopsis thaliana; D131I) (protein)
chain: B1 chain with T107Q, T134V
notes: as for B1
Km [1]: 56 ± 4.45 µM
kcat [1]: 0.00448 s⁻¹
Km [2]: 28 ± 0.77 µM
kcat [2]: 0.00448 s⁻¹
